Measured values taken from patent US20230265151A1, “GIP/GLP1 CO-AGONIST COMPOUNDS” (priority 2020, published 2023).
*1 amine or outer side, *2 acyl side, *3 side chain or, on linkers, in order; H or OH if unused. Where no end group is shown, it is not given here. Side-chain parts run from the residue outwards. [ ]: non-standard residue; d: D form. The star is where a group is joined. αMePhe(2-F) = C[C@](N)(Cc1ccccc1F)C(=O)O; γGlu = O=C(O)[C@H](CCC(=O)[*:2])N[*:1]; C14 diacid = O=C(O)CCCCCCCCCCCCC(=O)*; αMeY = C[C@](N)(Cc1ccc(O)cc1)C(=O)O; αMeF = C[C@](N)(Cc1ccccc1)C(=O)O; αMeL = CC(C)C[C@](C)(N)C(=O)O; Orn = NCCC[C@H](N)C(=O)O; AEEA = NCCOCCOCC(=O)O; Aib = CC(C)(N)C(=O)O

T1: human GIP receptor (human, UniProt P48546 22-466)
T1 sequence (looked up): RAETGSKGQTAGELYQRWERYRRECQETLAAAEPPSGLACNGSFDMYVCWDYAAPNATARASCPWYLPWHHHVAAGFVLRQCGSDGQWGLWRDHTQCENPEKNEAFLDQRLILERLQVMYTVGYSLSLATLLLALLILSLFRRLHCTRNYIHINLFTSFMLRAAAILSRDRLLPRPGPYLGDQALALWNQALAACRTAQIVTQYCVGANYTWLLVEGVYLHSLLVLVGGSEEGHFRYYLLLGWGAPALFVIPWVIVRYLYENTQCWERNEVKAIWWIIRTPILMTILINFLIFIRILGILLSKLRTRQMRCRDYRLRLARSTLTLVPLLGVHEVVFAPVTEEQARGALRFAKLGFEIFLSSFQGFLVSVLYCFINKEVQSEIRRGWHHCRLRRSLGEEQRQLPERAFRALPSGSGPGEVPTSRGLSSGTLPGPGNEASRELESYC

B1: Example 113 (peptide)
peptide: YXEGTXTSDXXIXLDXKAQXEFIKXLIEGGPSSGAPPPS
modifications: Aib2, αMeF(2F)6, 4Pal10, Aib11, αMeL13, Orn16, Aib20, αMeY25, K17 and K24: K(AEEA2-(γ-Glu)-CO-(CH2)12-CO2H), C-terminal NH2
B2: Example 118 (peptide)
peptide: YXEGTXTSDVSIXLDXKAQXEXIKXLIEGGPSSGAPPPS
modifications: Aib2, αMeF(2F)6, αMeL13, Orn16, Aib20, αMeF22, αMeY25, K17 and K24: K(AEEA2-(γ-Glu)-CO-(CH2)12-CO2H), C-terminal NH2
B3: Example 121 (peptide)
peptide: YXEGTXTSDXXIXLDXKAQXEXIKXLIEGGPSSGAPPPS
modifications: Aib2, αMeF(2F)6, 4Pal10, Aib11, αMeL13, Orn16, Aib20, αMeF22, αMeF25, K17 and K24: K(AEEA2-(γ-Glu)-CO-(CH2)12-CO2H), C-terminal NH2
B4: Example 127 (peptide)
peptide: YXEGTXTSDXSIXLDXKAQXKFIXXLIEGGPSSGAPPPS
modifications: Aib2, αMeF(2F)6, 4Pal10, αMeL13, Orn16, Aib20, D-Glu24, αMeY25, K17 and K21: K(AEEA2-(γ-Glu)-(10-(4-carboxyphenoxy)decanoyl)), C-terminal NH2
B5: Example 116 (peptide)
peptide: YXEGTXTSDXSIXLDXKAQXEFIKXLIEGGPSSGAPPPS
modifications: Aib2, αMeF(2F)6, Ac5c10, αMeL13, Orn16, Aib20, αMeY25, K17 and K24: K(AEEA2-(γ-Glu)-CO-(CH2)12-CO2H), C-terminal NH2
B6: Example 117 (peptide)
peptide: YXEGTXTSDXXIXLDXKAQXEXIKXLIEGGPSSGAPPPS
modifications: Aib2, αMeF(2F)6, 4Pal10, Aib11, αMeL13, Orn16, Aib20, αMeF22, αMeY25, K17 and K24: K(AEEA2-(γ-Glu)-CO-(CH2)12-CO2H), C-terminal NH2
B7: Example 120 (peptide)
peptide: YXEGTXTSDXSIXLDXKAQXEXIKXLIEGGPSSGAPPPS
modifications: Aib2, αMeF(2F)6, Ac5c10, αMeL13, Orn16, Aib20, αMeF22, αMeY25, K17 and K24: K(AEEA2-(γ-Glu)-CO-(CH2)12-CO2H), C-terminal NH2
B8: Example 114 (peptide)
peptide: YXEGTXTSDVSIXLDXKAQXEFIKXLIEGGPSSGAPPPS
modifications: Aib2, αMeF(2F)6, αMeL13, Orn16, Aib20, αMeY25, K17 and K24: K(AEEA2-(γ-Glu)-CO-(CH2)12-CO2H), C-terminal NH2
B9: Example 12 (peptide)
peptide: YXEGTXTSDXSIXLDXKAQXEFIXXLIEGGKSSGAPPPS
modifications: Aib2, αMeF(2F)6, 4Pal10, αMeL13, Orn16, Aib20, D-Glu24, αMeY25, K17 and K31: K(AEEA-(γ-Glu)-(10-(4-carboxyphenoxy)decanoyl)), C-terminal NH2
B10: Example 126 (peptide)
peptide: YXEGTXTSDXSIXLDXKAQXEFIXXLIEGGKSSGAPPPS
modifications: Aib2, αMeF(2F)6, 4Pal10, αMeL13, Orn16, Aib20, D-Glu24, αMeY25, K17 and K31: K(AEEA2-(γ-Glu)-(8-(4-carboxyphenoxy)octanoyl)), C-terminal NH2
B11: Example 124 (peptide)
peptide: YXEGTXTSDXSIXLDXKAQXEXIKXLIEGGPSSGAPPPS
modifications: Aib2, αMeF(2F)6, Ac5c10, αMeL13, Orn16, Aib20, αMeF22, αMeF25, K17 and K24: K(AEEA2-(γ-Glu)-CO-(CH2)12-CO2H), C-terminal NH2
B12: Example 122 (peptide)
peptide: YXEGTXTSDVSIXLDXKAQXEXIKXLIEGGPSSGAPPPS
modifications: Aib2, αMeF(2F)6, αMeL13, Orn16, Aib20, αMeF22, αMeF25, K17 and K24: K(AEEA2-(γ-Glu)-CO-(CH2)12-CO2H), C-terminal NH2
B13: Example 11 (peptide)
peptide: YXEGTXTSDXSIXLDXKAQXEFIXXLIEGGKSSGAPPPS
modifications: Aib2, αMeF(2F)6, 4Pal10, αMeL13, Orn16, Aib20, D-Glu24, αMeY25, K17 and K31: K(AEEA-(γ-Glu)-CO-(CH2)12-CO2H), C-terminal NH2
B14: Example 125 (peptide)
peptide: YXEGTXTSDXSIXLDXKAQXEFIXXLIEGGKSSGAPPPS
modifications: Aib2, αMeF(2F)6, 4Pal10, αMeL13, Orn16, Aib20, D-Glu24, αMeY25, K17 and K31: K(AEEA2-(γ-Glu)-(7-(4-carboxyphenoxy)heptanoyl)), C-terminal NH2
B15: Example 112 (peptide)
peptide: Y[Aib]EGT[αMePhe(2-F)]TSDK([AEEA-AEEA-γGlu-C14 diacid])SI[αMeL]LD[Orn]IAQ[Aib]E[αMeF]I[dE][αMeY]LIEGGK([AEEA-AEEA-γGlu-C14 diacid])SSGAPPPS-NH2
modifications: N-terminus assumed
SMILES: CC[C@H](C)[C@H](NC(=O)[C@H](CCCN)NC(=O)[C@H](CC(=O)O)NC(=O)[C@H](CC(C)C)NC(=O)[C@](C)(CC(C)C)NC(=O)[C@@H](NC(=O)[C@H](CO)NC(=O)[C@H](CCCCNC(=O)COCCOCCNC(=O)COCCOCCNC(=O)CC[C@H](NC(=O)CCCCCCCCCCCCC(=O)O)C(=O)O)NC(=O)[C@H](CC(=O)O)NC(=O)[C@H](CO)NC(=O)[C@@H](NC(=O)[C@](C)(Cc1ccccc1F)NC(=O)[C@@H](NC(=O)CNC(=O)[C@H](CCC(=O)O)NC(=O)C(C)(C)NC(=O)[C@@H](N)Cc1ccc(O)cc1)[C@@H](C)O)[C@@H](C)O)[C@@H](C)CC)C(=O)N[C@@H](C)C(=O)N[C@@H](CCC(N)=O)C(=O)NC(C)(C)C(=O)N[C@@H](CCC(=O)O)C(=O)N[C@@](C)(Cc1ccccc1)C(=O)N[C@H](C(=O)N[C@H](CCC(=O)O)C(=O)N[C@@](C)(Cc1ccc(O)cc1)C(=O)N[C@@H](CC(C)C)C(=O)N[C@H](C(=O)N[C@@H](CCC(=O)O)C(=O)NCC(=O)NCC(=O)N[C@@H](CCCCNC(=O)COCCOCCNC(=O)COCCOCCNC(=O)CC[C@H](NC(=O)CCCCCCCCCCCCC(=O)O)C(=O)O)C(=O)N[C@@H](CO)C(=O)N[C@@H](CO)C(=O)NCC(=O)N[C@@H](C)C(=O)N1CCC[C@H]1C(=O)N1CCC[C@H]1C(=O)N1CCC[C@H]1C(=O)N[C@@H](CO)C(N)=O)[C@@H](C)CC)[C@@H](C)CC
B16: Example 115 (peptide)
peptide: Y[Aib]EGT[αMePhe(2-F)]TSDV[Aib]I[αMeL]LD[Orn]K([AEEA-AEEA-γGlu-C14 diacid])AQ[Aib]EFIK([AEEA-AEEA-γGlu-C14 diacid])[αMeY]LIEGGPSSGAPPPS-NH2
B17: Example 119 (peptide)
peptide: Y[Aib]EGT[αMePhe(2-F)]TSDV[Aib]I[αMeL]LD[Orn]K([AEEA-AEEA-γGlu-C14 diacid])AQ[Aib]E[αMeF]IK([AEEA-AEEA-γGlu-C14 diacid])[αMeY]LIEGGPSSGAPPPS-NH2
B18: Example 111 (peptide)
peptide: Y[Aib]EGT[αMePhe(2-F)]TSDK([AEEA-AEEA-γGlu-C14 diacid])SI[αMeL]LD[Orn]IAQ[Aib]E[αMeF]I[dE][αMeY]LIK([AEEA-AEEA-γGlu-C14 diacid])GGPSSGAPPPS-NH2
modifications: N-terminus assumed
SMILES: CC[C@H](C)[C@H](NC(=O)[C@H](CCCN)NC(=O)[C@H](CC(=O)O)NC(=O)[C@H](CC(C)C)NC(=O)[C@](C)(CC(C)C)NC(=O)[C@@H](NC(=O)[C@H](CO)NC(=O)[C@H](CCCCNC(=O)COCCOCCNC(=O)COCCOCCNC(=O)CC[C@H](NC(=O)CCCCCCCCCCCCC(=O)O)C(=O)O)NC(=O)[C@H](CC(=O)O)NC(=O)[C@H](CO)NC(=O)[C@@H](NC(=O)[C@](C)(Cc1ccccc1F)NC(=O)[C@@H](NC(=O)CNC(=O)[C@H](CCC(=O)O)NC(=O)C(C)(C)NC(=O)[C@@H](N)Cc1ccc(O)cc1)[C@@H](C)O)[C@@H](C)O)[C@@H](C)CC)C(=O)N[C@@H](C)C(=O)N[C@@H](CCC(N)=O)C(=O)NC(C)(C)C(=O)N[C@@H](CCC(=O)O)C(=O)N[C@@](C)(Cc1ccccc1)C(=O)N[C@H](C(=O)N[C@H](CCC(=O)O)C(=O)N[C@@](C)(Cc1ccc(O)cc1)C(=O)N[C@@H](CC(C)C)C(=O)N[C@H](C(=O)N[C@@H](CCCCNC(=O)COCCOCCNC(=O)COCCOCCNC(=O)CC[C@H](NC(=O)CCCCCCCCCCCCC(=O)O)C(=O)O)C(=O)NCC(=O)NCC(=O)N1CCC[C@H]1C(=O)N[C@@H](CO)C(=O)N[C@@H](CO)C(=O)NCC(=O)N[C@@H](C)C(=O)N1CCC[C@H]1C(=O)N1CCC[C@H]1C(=O)N1CCC[C@H]1C(=O)N[C@@H](CO)C(N)=O)[C@@H](C)CC)[C@@H](C)CC
B19: Example 123 (peptide)
peptide: Y[Aib]EGT[αMePhe(2-F)]TSDV[Aib]I[αMeL]LD[Orn]K([AEEA-AEEA-γGlu-C14 diacid])AQ[Aib]E[αMeF]IK([AEEA-AEEA-γGlu-C14 diacid])[αMeF]LIEGGPSSGAPPPS-NH2

Experiments:
Assay in all cases: cell-based or functional assay
human GIP receptor = target: T1, human GIP receptor
human GLP-1 receptor = human GLP-1 receptor (human, UniProt P43220 24-463)
human glucagon receptor = human glucagon receptor (human, UniProt P47871 26-477)

Row | Binder | EC50, cAMP (human GIP receptor) | Emax, cAMP (human GIP receptor) | EC50, cAMP (human GLP-1 receptor) | EC50, cAMP (human glucagon receptor) | Emax, cAMP (human GLP-1 receptor)
1 | B1 | 0.0331 nM | 97.9% | 0.291 nM | > 9950 nM | –
2 | B2 | 0.0547 nM | 94.7% | 0.437 nM | > 9950 nM | –
3 | B3 | 0.0271 nM | 92.8% | 8.95 nM | > 9950 nM | –
4 | B4 | 0.027 nM | – | 0.762 nM | > 9950 nM | –
5 | B5 | 0.137 nM | 115% | 0.197 nM | > 9950 nM | –
6 | B6 | 0.0352 nM | 96.4% | 5.6 nM | > 9950 nM | 98.2%
7 | B7 | 0.0866 nM | – | 1.43 nM | > 9950 nM | –
8 | B8 | 0.0613 nM | 93.8% | 0.176 nM | > 9950 nM | 91.7%
9 | B9 | 0.0127 nM | – | 0.423 nM | > 9950 nM | –
10 | B10 | 0.0472 nM | – | 1.69 nM | > 9950 nM | –
11 | B11 | 0.1 nM | – | 1.24 nM | > 9950 nM | 93.3%
12 | B12 | 0.064 nM | – | 0.41 nM | > 9950 nM | 94.3%
13 | B13 | 0.0135 nM | – | 0.511 nM | > 9950 nM | –
14 | B14 | 0.0547 nM | – | 2.78 nM | > 9950 nM | –
15 | B15 | 0.0229 nM | 93.6% | 2.26 nM | > 9950 nM | –
16 | B16 | 0.103 nM | – | 0.16 nM | > 9950 nM | 91.6%
17 | B17 | 0.0863 nM | – | 0.351 nM | > 9950 nM | 99.4%
18 | B18 | 0.0202 nM | 76.1% | 2.28 nM | > 9950 nM | 121%
19 | B19 | 0.101 nM | 94.9% | 0.508 nM | > 9950 nM | 96.3%
